Experimental data reported in patent US20190284241A1 (Affibody, published 2019).
Read-outs that look alike come from different tables or passages of the source. Each block holds one molecule with its values, some of them ahead of it.

Key:
[1] = molecular target: human FcRn-eGFP on transduced HeLa cells (human) (UniProt P55899); assay: flow cytometry, hFcRn-eGFP HeLa cells, blocks Alexa647-hIgG, pH 6.0
[2] = molecular target: human FcRn-eGFP on transduced HeLa cells (human) (UniProt P55899); assay: as above; remark: listed apart in the source
[3] = molecular target: T1, human FcRn (Biorbyt, cat. no. orb84388) (human, UniProt P55899 24-297; P61769 21-119, limits assumed); assay: ELISA screening; periplasm with the ABD moiety only captured on anti-ABD antibody, biotinylated hFcRn at 2 nM
T1 construct: Bought protein; also called hFcRn
Protocol: After washing as described above, 50 μl ImmunoPure TMB substrate (Thermo Scientific, cat. no. 34021) was added to the wells and the plates were treated according to the manufacturer's recommendations.

[4] = molecular target: T2, human FcRn (Biorbyt, cat. no. orb84388) (human, UniProt P55899 24-297; P61769 21-119, limits assumed); assay: SPR Biacore, hFcRn immobilised; sample before the stability test (0)
T2 construct: Bought soluble protein; not biotinylated on Biacore chips and ELISA coat; also called hFcRn
Protocol: (§1) The His₆-tagged Z variants were further assessed in terms of preserved binding capacity to FcRn after introduction of alterations in the scaffold, as well as after having been subjected to the stability test, i.e. incubated at 37° C. for 2 weeks. Comparative kinetic constants (kₒₙ and koff) and affinities (KD) were determined using a Biacore 2000 instrument. The target protein human FcRn (Biorbyt, cat. no. orb 84388) was immobilized on the carboxylated dextran layer surface of a CM5 chip (GE Healthcare). The immobilization was performed using amine coupling chemistry according to the manufacturer's protocol and using HBS-EP as running buffer. One flow cell surface on the chip was activated and deactivated for use as blank during analyte injections. The immobilization level of hFcRn on the surface was approximately 750 RU. […] Regeneration by three pulses of HBS-EP followed by 10 min equilibration in running buffer was applied after each analyte injection. Kinetic constants were calculated from the sensorgrams using the Langmuir 1:1 model of the BiaEvaluation software 4.1 (GE Healthcare). Curves of the blank surface were subtracted from the curves of the ligand surfaces and the data from the buffer cycles were subtracted from the data of the test-sample cycles to correct for any drift in signal.

[5] = molecular target: T2, human FcRn (Biorbyt, cat. no. orb84388); assay: SPR Biacore, hFcRn immobilised; sample after 2 weeks at 37 °C (2 w)
Protocol: as §1

- IC50 [1]: 150 nM
- IC50 [2]: 170 nM
Molecule: Intravenous immunoglobulin (IVIg; Octagam, Octapharma) (antibody)

- IC50 [2]: 120 nM
Molecule: Subcutaneous immunoglobulin (SCIg; Gammanorm, Octapharma) (antibody)

- binding result [3]: no binding (tested: 2 nM)
Molecule: LAEAKVLANRELDKYGVSDYYKNLINNAKTVEGVKALIDEILAALP (other, Streptococcus strain G148, UniProt P19909 254-299, looked up, domain: GA3) [ABD moiety only (periplasm, negative control)]

- Kd [4]: 5.5 nM
- koff [4]: 0.01 s⁻¹
- kon [4]: 1.82e+06 M⁻¹ s⁻¹
- Kd [5]: 6.3 nM
- koff [5]: 0.00809 s⁻¹
- kon [5]: 1.28e+06 M⁻¹ s⁻¹
B1: His6-tagged Z17348 (designed binder)
chain: MGSSHHHHHHLQAEAKYAKEQDAAAHEIRWLPNLTFDQRVAFIHKLARQPEQSSELLSEAKKLSESQAPK
